Our source for the Kd values is US20160046689A1 (NOVELOGICS BIOTECHNOLOGY, published 2016).

The experiment has as its target T1, recombinant extracellular alpha-3 domain of MICA (allele 001), Baculovirus-expressed, C-terminal His tag (human, UniProt Q29983 205-297).
T1 construct: Expressed in Sf9 cells and purified by Ni2+ chelation with 8M urea, then dialysed; also called alpha-3 domain MICA protein; target MICA alpha-3 domain recombinant protein
T1 sequence: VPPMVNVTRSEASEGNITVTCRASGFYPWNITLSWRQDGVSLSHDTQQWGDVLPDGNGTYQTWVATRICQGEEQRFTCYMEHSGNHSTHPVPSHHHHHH
The experiment can be described thus: BLI (Octet RED96), antibody captured by anti-mouse IgG, antigen in solution, pH 7.4, 1:1 model. How it is done: Biomolecular interactions between antigen and antibody were directly measured by Bio-Layer Interferometry (BLI) using a Pall ForteBio Octet RED96 machine (Pall ForteBio, CA, USA). Real-time kinetic analyses were performed on the test MICA monoclonal antibodies 1F5 and 8C7, as well as two control antibodies, one of which could bind the alpha-3 MICA subdomain antigen (positive control) and one of which could not (negative control, binds other MICA subdomains), as previously determined by ELISA. The Octet RED96 apparatus operates under the principle of Bio-Layer Interferometry, a label-free technique that measures molecular interactions and complex formation. A key component of the technique is the optical biosensor whose tip is immersed in the fluids of the test well and then used to assay interference patterns between waves of light. Here, the ligand (monoclonal antibody) is localized to the surface of the biosensor through capture by previously bound anti-mouse IgG, while the analyte biomolecule (antigen) is kept in solution. Binding responses between ligand and analyte were measured and reported in real-time. Both association and dissociation kinetics were monitored and KD values were calculated. This model assumed a 1:1 interaction of ligand to analyte.
Background: In BLI a coated tip is dipped into the sample, and binding shifts an interference pattern.

B1: antibody 8C7 (antibody, IgG1, V domains shown)
VH: QIQLVQSGPELKKPGETVKISCKASGYTFTNYGMNWVKQAPGKGLKWMGWINTNTGEPTYAEEFKGRFAFSLETSASTAYLQINNLKNEDTATYFCARSGGSSPFAYWGQGTLVTVSA
VL: DIVMTQAAPSVPVTPGESVSISCRSSKSLLQSNGNTFLYWFMQRPGQSPQLLIYRMSNLASGVPDRFSGSGSGTAFTLRISRVEAEDVGVYYCMQHLEYPFTFGGGTKLEIKR
notes: Mouse hybridoma monoclonal, IgG1 heavy chain and kappa light chain; Tested as hybridoma supernatant in ELISA and FACS; also called antibody from clone 8C7; hybridoma clone 8C7
With B1, the Kd was about 6.81 nM.

B2: antibody 1F5 (antibody, IgG1, V domains shown)
VH: QIQLVQSGPELKKPGETVKISCKASGYTFTDYSVHWVKQAPGKGLKWMGWINTETGEPTYADDFKGRFAFSLETSASTAYLQINNLKNEDTATYFCARAGGNAFAYWGQGTLVTVSA
VL: DIVLTQSPASLAVSLGQRATISCRASKSVSTSGYSYMHWYQQKPGQPPKLLIYRASNLESGVPARFSGSGSGTDFTLNIHPVEEEDAATYYCQHSRELPLTFGAGTKLELKR
notes: Mouse hybridoma monoclonal, IgG1 heavy chain and kappa light chain; Tested as hybridoma supernatant in ELISA and FACS; also called IF5; antibody from clone 1F5
For the molecule B2, the Kd is about 0.783 nM.

What is called Kd is a measure of binding affinity in units of concentration.
